Results on three molecules are retold here after US20220220224A1 (Hoffmann-La Roche, published 2022).

Numbering of substitutions follows the chain as printed. Names and notes keep the numbering of the source. Where two headings read alike, the source gives them in different places.

In assay [1] the target is T1, human FolR1 expressed on cells (HeLa, SKOV3, HT-29, transfected HEK cells) (human, UniProt P15328 25-234). In words: cell-based or functional assay.
Assay [2] concerns the target T2, recombinant biotinylated monomeric Fc fusion of human Folate Receptor 1 (huFolR1 ECD-AcTev-Fcknob-Avi tag … (human, UniProt P0DOX5 223-449 = IgG part, biotin on the C-terminal Avi tag)).
T2 construct: also called huFolR1-Fc; human FolR1-Fc
In words: SPR Biacore, avidity (bivalent, apparent KD), antigen-Fc on SA chip. The protocol:
(§1) All SPR experiments were performed on a Biacore T200 at 25° C. with HBS-EP as running buffer (0.01 M HEPES pH 7.4, 0.15 M NaCl, 3 mM EDTA, 0.005% Surfactant P20, Biacore, GE Healthcare). The molecules used for affinity and avidity determination are described in Table 45.
(§2) Recombinant biotinylated monomeric Fc fusions of human, cynomolgus and murine Folate Receptor 1 (FolR1-Fc) were directly coupled on a SA chip using the standard coupling instruction (Biacore, GE Healthcare). The immobilization level was about 200-300 RU. […] The dissociation was monitored for 240 or 600 seconds. The chip surface was regenerated after every cycle using a double injection of 30 sec 10 mM Glycine-HCl pH 1.5. Bulk refractive index differences were corrected for by subtracting the response obtained on reference flow cell immobilized with recombinant biotinylated murine IL2R Fc fusion (unrelated Fc fused receptor). The binding curves resulting from the bivalent binding of the T cell bispecifics were approximated to a 1:1 Langmuir binding (even though it is a 1:2 binding) and fitted with that model to get an apparent KD representing the avidity of the bivalent binding. The apparent avidity constants for the interactions were derived from the rate constants of the fitting using the Bia Evaluation software (GE Healthcare).
A general note: In SPR one partner is held on a chip, and binding of the other changes the refractive index at the surface.

In assay [3] the target is T3, recombinant biotinylated monomeric Fc fusion of cynomolgus Folate Receptor 1 (cy FolR1 ECD-AcTev-Fcknob-Avi … (cynomolgus, UniProt P0DOX5 223-449 = IgG part, biotin on the C-terminal Avi tag)).
T3 construct: also called cyFolR1-Fc; cyno FolR1
The assay is described as above. On the procedure: as §1, §2

For assay [4], the target named is T2, recombinant biotinylated monomeric Fc …. In words: SPR Biacore, avidity (bivalent).
Assay [5] has as its target T1, human FolR1 expressed on cells (HeLa, …). In words: cell-based or functional assay. The source holds these as a separate data set.
Assay [6] addresses T4, recombinant biotinylated monomeric Fc fusion of human Folate Receptor 3 (hu FolR3 ECD-AcTev-Fcknob-Avi tag … (human, UniProt P0DOX5 223-449 = IgG part, biotin on the C-terminal Avi tag)).
T4 construct: also called FolR3-Fc
Briefly: SPR Biacore, single injection on immobilized antigen-Fc. On the procedure:
as §1
(§3) First the anti-FolR1 TCBs were analyzed by single injections (Table 46) to characterize their crossreactivity (to human, murine and cyno FolR1) and specificity (to human FolR1, human FolR2, human FolR3). Recombinant biotinylated monomeric Fc fusions of human, cynomolgus and murine Folate Receptor 1 (FolR1-Fc) or human Folate Receptor 2 and 3 (FolR2-Fc, FolR3-Fc) were directly coupled on a SA chip using the standard coupling instruction (Biacore, Freiburg/Germany). The immobilization level was about 300-400 RU. The TCBs were injected for 60 seconds at a concentration of 500 nM.

Assay [7] addresses T5, recombinant biotinylated monomeric Fc fusion of human Folate Receptor 2 (hu FolR2 ECD-AcTev-Fcknob-Avi tag … (human, UniProt P0DOX5 223-449 = IgG part, biotin on the C-terminal Avi tag)).
T5 construct: also called FolR2-Fc
Described as above. The protocol:
as §1, §3

The target of assay [8] is T6, recombinant biotinylated monomeric Fc fusion of murine Folate Receptor 1 (mu FolR1 ECD-AcTev-Fcknob-Avitag … (murine, UniProt P0DOX5 223-449 = IgG part, biotin on the C-terminal Avi tag)).
T6 construct: also called muFolR1-Fc; murine FolR1
Described as above. On the procedure:
as §1, §3

Assay [9] has as its target T2, recombinant biotinylated monomeric Fc …. Briefly: SPR Biacore, affinity (monovalent).
Assay [10] shares this target. Briefly: SPR Biacore, affinity (monovalent), antibody captured via anti-Fab. The protocol: as §1
(§4) For affinity measurement, direct coupling of around 12000 resonance units (RU) of the anti-human Fab specific antibody (Fab capture kit, GE Healthcare) was performed on a CM5 chip at pH 5.0 using the standard amine coupling kit (GE Healthcare). Anti-FolR1 T cell bispecifics were captured at 20 nM with a flow rate of 10 μl/min for 40 sec, the reference flow cell was left without capture. […] The dissociation phase was monitored for 300 s and triggered by switching from the sample solution to HBS-EP. The chip surface was regenerated after every cycle using a double injection of 60 sec 10 mM Glycine-HCl pH 2.1. Bulk refractive index differences were corrected for by subtracting the response obtained on the reference flow cell 1. The affinity constants for the interactions were derived from the rate constants by fitting to a 1:1 Langmuir binding using the Bia Evaluation software (GE Healthcare). For low affinity kinetics with association and dissociation phases too fast to be fitted by the 1:1 Langmuir binding model, the steady state analysis model was applied using the Bia Evaluation software (GE Healthcare). The steady state analysis gives the KD of the binding reaction at equilibrium.

The target of assay [11] is T3, recombinant biotinylated monomeric Fc …. The description is as above. The protocol: as §1, §4
Assay [12] addresses T1, human FolR1 expressed on cells (HeLa, …). Briefly: cell-based or functional assay. The source holds these as a separate data set.
In assay [13] the target is T4, recombinant biotinylated monomeric Fc …. Briefly: SPR Biacore, single injection on immobilized antigen-Fc. The essentials: (§5)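 Biacore T200 at 25 °C in HBS-EP (HEPES pH 7.4). Biotinylated FolR-Fc fusions captured on SA chip at about 300-400 RU. IgGs injected once at 500 nM for 60 s to assess cross-reactivity and specificity.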
The source holds these as a separate data set.

In assay [14] the target is T5, recombinant biotinylated monomeric Fc …. The description is as above. The essentials:
as §5
This is another data set of the same source.

The target of assay [15] is T6, recombinant biotinylated monomeric Fc …. Briefly: SPR Biacore, single injection 500 nM on immobilized antigen-Fc. On the procedure:
Binding of FolR1 binders as IgG or in the T-cell bispecific format to different recombinant folate receptors (human FolR1, 2 and 3, murine FolR1 and cynomolgus FolR1; all as Fc fusions) was assessed by surface plasmon resonance (SPR). All SPR experiments were performed on a Biacore T200 at 25° C. with HBS-EP as running buffer (0.01 M HEPES pH 7.4, 0.15 M NaCl, 3 mM EDTA, 0.005% Surfactant P20, Biacore, Freiburg/Germany).
First the anti-FolR1 IgGs were analyzed by single injections (Table 1) to characterize their crossreactivity (to human, murine and cyno FolR1) and specificity (to human FolR1, human FolR2, human FolR3). Recombinant biotinylated monomeric Fc fusions of human, cynomolgus and murine Folate Receptor 1 (FolR1-Fc) or human Folate Receptor 2 and 3 (FolR2-Fc, FolR3-Fc) were directly coupled on a SA chip using the standard coupling instruction (Biacore, Freiburg/Germany). The immobilization level was about 300-400 RU. The IgGs were injected for 60 seconds at a concentration of 500 nM.

T1 sequence (P15328 25-234): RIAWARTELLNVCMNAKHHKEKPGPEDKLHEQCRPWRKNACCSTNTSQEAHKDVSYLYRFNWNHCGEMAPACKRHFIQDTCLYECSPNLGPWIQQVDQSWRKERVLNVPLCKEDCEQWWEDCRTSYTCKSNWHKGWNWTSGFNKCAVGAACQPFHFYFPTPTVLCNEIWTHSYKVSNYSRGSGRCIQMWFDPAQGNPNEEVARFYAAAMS

B1: 9D11 TCB S100aA (CD3 deamidation variant) (bispecific antibody, human IgG1, kappa, L234A L235A)
heavy 1: not shown
heavy 2: QVQLVQSGAEVKKPGASVKVSCKASGYTFTSYYMHWVRQAPGQGLEWMGIINPSGGPTSYAQKFQGRVTMTRDTSTSTVYMELSSLRSEDTAVYYCARGDFAWLDYWGQGTLVTVSSASTKGPSVFPLAPSSKSTSGGTAALGCLVKDYFPEPVTVSWNSGALTSGVHTFPAVLQSSGLYSLSSVVTVPSSSLGTQTYICNVNHKPSNTKVDKKVEPKSCDKTHTCPPCPAPEAAGGPSVFLFPPKPKDTLMISRTPEVTCVVVDVSHEDPEVKFNWYVDGVEVHNAKTKPREEQYNSTYRVVSVLTVLHQDWLNGKEYKCKVSNKALGAPIEKTISKAKGQPREPQVCTLPPSRDELTKNQVSLSCAVKGFYPSDIAVEWESNGQPENNYKTTPPVLDSDGSFFLVSKLTVDKSRWQQGNVFSCSVMHEALHNHYTQKSLSLSPGK
light 1: not shown
light 2: QAVVTQEPSLTVSPGGTVTLTCGSSTGAVTTSNYANWVQEKPGQAFRGLIGGTNKRAPGTPARFSGSLLGGKAALTLSGAQPEDEAEYYCALWYSNLWVFGGGTKLTVLSSASTKGPSVFPLAPSSKSTSGGTAALGCLVKDYFPEPVTVSWNSGALTSGVHTFPAVLQSSGLYSLSSVVTVPSSSLGTQTYICNVNHKPSNTKVDKKVEPKSC
Turning to B1, in assay [1], the “EC50 of T-cell killing of SKov-3, 24 h” value worked out at 0.00194 nM.

B2: 16D5 G49S/S93A TCB (2+1 inverted, common light chain) (bispecific antibody, V domains shown)
VH 1: not shown
VL: QTVVTQEPSLTVSPGGTVTLTCGSSTGAVTTSNYANWVQQKPGQAPRGLIGGTNKRAPGTPARFSGSLLGGKAALTLSGVQPEDEAEYYCALWYANLWVFGGGTKLTVL
VH 2: not shown
For the molecule B2, in assay [2], the Kd came to 10 nM; the koff (in general, a measure of how fast the partners let go of each other) came to 0.00209 s⁻¹; the kon (commonly the second-order rate constant of association) came to 149000 M⁻¹ s⁻¹. For the same molecule, in [3], the Kd was found to be 20 nM, the koff came out at 0.00784 s⁻¹ and the kon came to 454000 M⁻¹ s⁻¹. In addition, the “fold lower avidity than 16D5 WT (3 nM)” value in [4] was determined as 3 fold. Besides, in [5], the “EC50 of T-cell killing of Hela, 24 h” value was found to be 0.0023 nM and the “EC50 of T-cell killing of SKov-3, 24 h” value worked out at 0.43 nM. For the same molecule, in [6], the binding result is “no binding (tested: 500 nM)”. Also, the binding result in assay [7] is recorded as “no binding (tested: 500 nM)”. For the same molecule, the binding result in [8] is “no binding (tested: 500 nM)”. In assay [9], the “fold lower affinity than 16D5 WT (57 nM)” value came to 14.5 fold. For the same molecule, in [10], the Kd was determined as 830 nM, the dissociation rate constant (koff) is 0.00837 s⁻¹ and the association rate constant (kon) was 10100 M⁻¹ s⁻¹. Further, in assay [11], the Kd amounted to 420 nM, the koff was 0.0086 s⁻¹ and the association rate constant (kon) worked out at 20500 M⁻¹ s⁻¹. In assay [12], the “EC50 of T-cell killing of HT-29, 48 h” value was 0.0993 nM; the “EC50 of T-cell killing of Hela, 48 h” value was 0.0009 nM; the “EC50 of T-cell killing of SKov-3, 48 h” value amounted to 0.0959 nM.

B3: 20H7 IgG (antibody, V domains shown)
VH: QVQLVQSGAEVKKPGASVKVSCKASGYTFTSYYMHWVRQAPGQGLEWMGIINPSGGSTSYAQKFQGRVTMTRDTSTSTVYMELSSLRSEDTAVYYCARVGWYRWGYMDYWGQGTLVTVSS
VL: B2 VL with T2A, Q40E, P46F, V80A, A95S
notes: human IgG1
With B3, the binding result is on record as “no binding (tested: 500 nM)” in assay [13], “no binding (tested: 500 nM)” in [14] and “binds” in assay [15].
